Holding throughout (assay): cell-based or functional assay
Assay [1] deals with rat brain type IIA α sub-unit of the voltage-gated sodium channel (rat) (UniProt P04775).
Assay [2] shares this target. This is another data set of the same source.
For assay [3] the target is unchanged. The source holds these as a separate data set.

Like-named read-outs stand apart in the source and are kept apart here.

Sequence of UniProt P04775 (P04775 whole entry): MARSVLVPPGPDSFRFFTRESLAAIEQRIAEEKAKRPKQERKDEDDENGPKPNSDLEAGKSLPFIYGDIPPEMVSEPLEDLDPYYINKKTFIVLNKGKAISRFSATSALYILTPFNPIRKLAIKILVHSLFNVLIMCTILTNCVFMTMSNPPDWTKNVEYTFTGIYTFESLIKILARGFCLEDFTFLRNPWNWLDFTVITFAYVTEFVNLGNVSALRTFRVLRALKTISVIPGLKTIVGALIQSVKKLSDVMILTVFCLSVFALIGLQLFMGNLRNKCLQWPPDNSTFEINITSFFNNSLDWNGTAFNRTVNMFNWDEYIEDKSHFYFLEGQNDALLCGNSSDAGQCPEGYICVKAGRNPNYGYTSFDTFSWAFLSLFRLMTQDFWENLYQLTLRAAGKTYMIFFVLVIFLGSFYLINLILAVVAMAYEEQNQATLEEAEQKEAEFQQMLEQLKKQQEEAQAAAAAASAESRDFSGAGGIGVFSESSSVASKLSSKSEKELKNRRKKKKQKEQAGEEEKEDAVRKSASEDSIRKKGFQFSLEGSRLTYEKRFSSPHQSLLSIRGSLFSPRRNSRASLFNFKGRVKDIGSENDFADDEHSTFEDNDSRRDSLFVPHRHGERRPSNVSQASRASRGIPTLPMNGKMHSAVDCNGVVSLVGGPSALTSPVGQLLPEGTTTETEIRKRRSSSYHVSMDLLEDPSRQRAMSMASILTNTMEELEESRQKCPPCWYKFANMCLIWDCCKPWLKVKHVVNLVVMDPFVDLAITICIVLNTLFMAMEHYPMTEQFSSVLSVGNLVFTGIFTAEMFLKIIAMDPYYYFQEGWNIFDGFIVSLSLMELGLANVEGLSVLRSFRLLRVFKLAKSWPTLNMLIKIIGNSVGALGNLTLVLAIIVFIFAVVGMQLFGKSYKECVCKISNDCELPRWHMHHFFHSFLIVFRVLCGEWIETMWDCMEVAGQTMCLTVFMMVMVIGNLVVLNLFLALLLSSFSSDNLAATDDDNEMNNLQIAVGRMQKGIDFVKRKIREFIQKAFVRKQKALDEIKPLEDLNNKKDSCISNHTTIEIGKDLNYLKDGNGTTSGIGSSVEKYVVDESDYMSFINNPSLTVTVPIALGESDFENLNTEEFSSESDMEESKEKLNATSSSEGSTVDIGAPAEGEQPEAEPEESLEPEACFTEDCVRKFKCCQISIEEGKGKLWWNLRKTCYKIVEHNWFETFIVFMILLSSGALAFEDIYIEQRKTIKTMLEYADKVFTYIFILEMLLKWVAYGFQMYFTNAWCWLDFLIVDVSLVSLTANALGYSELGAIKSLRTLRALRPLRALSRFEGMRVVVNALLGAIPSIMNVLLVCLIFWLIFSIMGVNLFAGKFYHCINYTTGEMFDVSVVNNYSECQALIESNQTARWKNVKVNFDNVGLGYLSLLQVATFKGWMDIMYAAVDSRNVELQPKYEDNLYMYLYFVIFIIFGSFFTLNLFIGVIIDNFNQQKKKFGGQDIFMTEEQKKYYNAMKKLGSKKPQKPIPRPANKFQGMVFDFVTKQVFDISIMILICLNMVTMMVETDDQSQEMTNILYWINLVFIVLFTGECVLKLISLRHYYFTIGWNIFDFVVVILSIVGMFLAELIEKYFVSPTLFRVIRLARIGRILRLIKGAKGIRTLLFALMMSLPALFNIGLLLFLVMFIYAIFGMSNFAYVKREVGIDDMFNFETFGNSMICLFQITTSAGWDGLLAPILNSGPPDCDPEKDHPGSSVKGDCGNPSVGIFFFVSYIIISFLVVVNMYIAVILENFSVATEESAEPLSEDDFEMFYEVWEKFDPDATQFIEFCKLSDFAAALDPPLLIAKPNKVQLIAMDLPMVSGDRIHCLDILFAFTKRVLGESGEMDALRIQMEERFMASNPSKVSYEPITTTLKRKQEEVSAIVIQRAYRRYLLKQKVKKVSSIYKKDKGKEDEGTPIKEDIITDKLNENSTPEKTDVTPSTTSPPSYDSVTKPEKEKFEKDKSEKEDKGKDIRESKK

In assay [1], “rat voltage-gated sodium channel β1 sub-unit (from UniProt Q00954 19-218)” gave an Inactivation timecourse, Percentage in fast mode of 95%; an Inactivation timecourse, time constant 1 of 1.4 ms; an Inactivation timecourse, time constant 2 of 24.7 ms; a Recovery from inactivation, Percentage in fast mode of 84%. In assay [1], this molecule returned a Recovery from inactivation, time constant 1 of 2 ms; a Recovery from inactivation, time constant 2 of 148 ms; a Voltage-dependence of inactivation, V½ (mV) of -49.1 mV; a Voltage-dependence of inactivation, k (mV) of 5.9 mV. In assay [1], the inactivation time constant 1 at -10 mV (two-electrode voltage clamp, oocytes) is 1.3 ms and the inactivation time constant 2 at -10 mV (two-electrode voltage clamp, oocytes) was determined as 22.7 ms.

B1: rat voltage-gated sodium channel β3 sub-unit (protein)
chain: VCVEVPSETEAVQGNPMKLRCISCMKREEVEATTVVEWFYRPEGGKDFLIYEYRNGHQEVESPFQGRLQWNGSKDLQDVSITVLNVTLNDSGLYTCNVSREFEFEAHRPFVKTTRLIPLRVTEEAGEDFTSVVSEIMMYILLVFLTLWLFIEMIYCYRKVSKAEEAAQENASDYLAIPSENKENSVVPVEE
In assay [2], B1 came in with an Inactivation timecourse, Percentage in fast mode of 85%; an Inactivation timecourse, time constant 1 of 1.5 ms; an Inactivation timecourse, time constant 2 of 24.7 ms; a Recovery from inactivation, Percentage in fast mode of 73%. Further, in assay [2], the Recovery from inactivation, time constant 1 amounted to 4.1 ms; the Recovery from inactivation, time constant 2 turned out to be 170 ms; the Voltage-dependence of inactivation, V½ (mV) was -49.3 mV; the Voltage-dependence of inactivation, k (mV) was found to be 6.1 mV. In assay [2], this molecule had an inactivation time constant 1 at -10 mV (two-electrode voltage clamp, oocytes) of 1 ms; an inactivation time constant 2 at -10 mV (two-electrode voltage clamp, oocytes) of 23.8 ms; a steady-state inactivation, V1/2 (midpoint) of -49.4 mV. In addition, in assay [3], the Recovery from inactivation, time constant 1 turned out to be 1.9 ms and the Recovery from inactivation, time constant 2 came out at 198 ms.

B2: human voltage-gated sodium channel β3 sub-unit (protein)
chain: FPVCVEVPSETEAVQGNPMKLRCISCMKREEVEATTVVEWFYRPEGGKDFLIYEYRNGHQEVESPFQGRLQWNGSKDLQDVSITVLNVTLNDSGLYTCNVSREFEFEAHRPFVKTTRLIPLRVTEEAGEDFTSVVSEIMMYILLVFLTLWLLIEMIYCYRKVSKAEEAAQENASDYLAIPSENKENSAVPVEE
In assay [2], B2 displayed an inactivation time constant 1 of 1 ms and an inactivation time constant 2 of 9.1 ms.
